For experiment [1], the target named is α-synuclein fibrils. Description: fluorescence spectroscopy of the fibrils formed; seeded fibrils formed with unlabelled monomeric α-synuclein and monomeric Alexa-568-β-synuclein, compared with fibrils formed with Alexa-568-α-synuclein; pH 6.5.
Experiment [2] deals with α-synuclein fibrils. Description: microfluidic diffusional sizing; monomeric Alexa-568-β-synuclein incubated (15 min) with unlabelled α-synuclein fibrils at [α-synuclein fibrils]:[β-synuclein monomer] (M:M) of 5 and 40; conditions of the seeded kinetic experiments (pH 6.5); degree of binding estimated from the effective hydrodynamic radius.

A value given as a limit tells only on which side of the number the result lay.

Substance “Alexa-568-β-synuclein, monomeric (from UniProt Q16143 1-134) (natural protein)” had a degree of incorporation into the fibrils with α-synuclein fibrils [1] of less than 3%. In the experiment with α-synuclein fibrils [2], the degree of binding at [α-synuclein fibrils]:[β-synuclein monomer] ratio 5 is less than 5% and the degree of binding at [α-synuclein fibrils]:[β-synuclein monomer] ratio 40 is 10%.

Source of the values: publication PMC5093550.
